From paper PMC9602339, “Diaminopimelic Acid Metabolism by Pseudomonadota in the Ocean” (Microbiology Spectrum, 2022)

B1: LysA (DAP decarboxylase) from strain A40-3 (Thalassospira sp. A40-3) (protein)
chain: MNHFEYINSELYAEGVSIREMADKVGTPFFCYSTATLERHYKVYADAFDGLDATVCFAVKANSNQAVLKTLANLGAGADVVSVGEMRRALRAGMPPAKIIFSGVGKADAEMREALDADIAQINVESIPELVELNRVAIDMGKKARIALRVNPHVDAKTHEKIATGKAENKFGIDWTRAIEVYREAAAMDGIEVTGIAMHIGSQLTDLAPFREAFTRLAGLVEQLRSEGIDIRNLDLGGGLGIAYQGETPPLPDAYGQMVRETVGHLGCHITLEPGRLIAGNAGIMVSRVMYIKDGEAKRFVILDAAMNDLIRPTLYGAYHEIIPVDEQTDGDKQVKVDVVGPVCETGDTFGKDRDLPDDLKAGDLVAVMSAGAYGAVMSSTYNTRALTPEVLVKGNNFAIVRPRQEIDDLINMDLVPSWLSNA
notes: full length 423 residues
B2: LysA (DAP decarboxylase) from strain A40-4 (Halomonas sp. A40-4) (protein)
chain: MDHFNDRDGLLFAEDVPLDRIAETYGTPCYVYSKATLTRHFRAYTEALGGHPHLICYAVKANSNLAVLGLLAKLGAGFDIVSVGELERVLKAGGDPDKVVFSGVAKQPHEMARALEVGIKCFNVESRPELERLNAVAGELGKMAPVSLRVNPDVDAGTHPYISTGLKDNKFGIPVDDALTVYELAASLPNLQVKGLDCHIGSQLTETAPFLDALERLLVLMERLRERGIEIDHLDLGGGLGVPYRDETPPHPFDYASQLLSRLSRWEGGEQLTLLFEPGRSIAANAGIMLTRVEFLKPGETKNFAIVDAAMNDLIRPALYQAWQAIVPVDTRSARETSIYDVVGPVCETGDFLGQERELAIAAGDLLAVRSAGAYGFVMASNYNSRPRPAEVMVDGERCHLVRARETLESLWSGEALLPEGGC
notes: lysA complementation fragment 1,272 bp

How the values were obtained:
[1] = substrate: NC(CCCC(N)C(=O)O)C(=O)O; test: initial rates, Lys production by amino acid analyzer; nonlinear Michaelis-Menten fit; assay type: biochemical, Thalassospira sp. A40-3; details: 0 to 12 mM DAP, 200 mM Tris-HCl pH 8.0, PLP (100 mM [sic]), 25°C, DAP stereoisomer not given
Excerpt: initial rates, Lys production by amino acid analyzer; nonlinear Michaelis-Menten fit on LysA (DAP decarboxylase) from strain A40-3

[2] = substrate: NC(CCCC(N)C(=O)O)C(=O)O; test: as above; assay type: biochemical, Halomonas sp. A40-4; details: 0 to 12 mM DAP, 200 mM Tris-HCl pH 8.0, PLP (100 mM [sic]), 25°C, DAP stereoisomer not given
Excerpt: initial rates, Lys production by amino acid analyzer; nonlinear Michaelis-Menten fit on LysA (DAP decarboxylase) from strain A40-4

Row | Protein | Km [1] [µM] | Vmax [1] [µmol/min/mg] | kcat [1] [s⁻¹] | Km [2] [µM] | Vmax [2] [µmol/min/mg] | kcat [2] [s⁻¹]
1 | B1 | 1890 ± 340 | 37.7 | 26.9 ± 2.42 | – | – | –
2 | B2 | – | – | – | 720 ± 140 | 58.3 | 41.6 ± 0.88
